Reference: patent US20220275100A1 (JIANGSU HENGRUI MEDICINE, published 2022)
Residue numbers refer to the chain shown, from its start. Names may count otherwise.

B1: hu11E (antibody, human IgG1, kappa)
heavy: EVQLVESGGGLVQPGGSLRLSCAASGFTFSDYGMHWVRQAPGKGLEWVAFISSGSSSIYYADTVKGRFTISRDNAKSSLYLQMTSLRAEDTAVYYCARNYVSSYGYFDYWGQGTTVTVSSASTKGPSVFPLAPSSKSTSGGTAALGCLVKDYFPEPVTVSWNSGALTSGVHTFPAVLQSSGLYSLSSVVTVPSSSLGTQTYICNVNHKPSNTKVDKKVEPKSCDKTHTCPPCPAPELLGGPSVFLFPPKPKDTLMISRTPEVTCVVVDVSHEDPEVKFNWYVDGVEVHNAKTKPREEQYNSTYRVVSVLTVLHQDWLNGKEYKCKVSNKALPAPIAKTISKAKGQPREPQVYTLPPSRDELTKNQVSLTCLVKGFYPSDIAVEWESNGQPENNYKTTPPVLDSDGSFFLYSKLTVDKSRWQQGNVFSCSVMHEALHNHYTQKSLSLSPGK
light: DIVMTQSPDSLAVSLGERATINCRASENVDNYGISFMHWYQQKPGQPPKLLIYRASNLESGVPDRFSGSGSGTDFTLTISSLQAEDVAVYYCQQSNKDPLTFGGGTKVEIKRTVAAPSVFIFPPSDEQLKSGTASVVCLLNNFYPREAKVQWKVDNALQSGNSQESVTEQDSKDSTYSLSSTLTLSKADYEKHKVYACEVTHQGLSSPVTKSFNRGEC
notes: Humanized, human IgG1-E333A / kappa; also called h011-01E
B2: hu160E (antibody, human IgG1, kappa)
heavy: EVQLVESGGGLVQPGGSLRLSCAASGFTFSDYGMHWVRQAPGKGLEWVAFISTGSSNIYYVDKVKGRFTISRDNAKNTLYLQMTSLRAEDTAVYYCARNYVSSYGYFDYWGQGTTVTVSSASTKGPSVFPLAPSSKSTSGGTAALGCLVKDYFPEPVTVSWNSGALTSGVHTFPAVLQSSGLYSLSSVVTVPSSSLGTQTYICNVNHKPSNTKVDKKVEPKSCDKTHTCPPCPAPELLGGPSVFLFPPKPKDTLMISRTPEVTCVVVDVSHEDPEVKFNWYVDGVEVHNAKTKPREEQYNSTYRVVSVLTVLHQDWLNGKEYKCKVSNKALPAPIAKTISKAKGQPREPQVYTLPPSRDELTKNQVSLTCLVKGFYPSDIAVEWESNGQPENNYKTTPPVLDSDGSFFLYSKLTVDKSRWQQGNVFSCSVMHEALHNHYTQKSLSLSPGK
light: B1 light with D9A, N28S, S95T
notes: Humanized, human IgG1-E333A / kappa; also called h160-01E
B3: hu9E (antibody, human IgG1, kappa)
heavy: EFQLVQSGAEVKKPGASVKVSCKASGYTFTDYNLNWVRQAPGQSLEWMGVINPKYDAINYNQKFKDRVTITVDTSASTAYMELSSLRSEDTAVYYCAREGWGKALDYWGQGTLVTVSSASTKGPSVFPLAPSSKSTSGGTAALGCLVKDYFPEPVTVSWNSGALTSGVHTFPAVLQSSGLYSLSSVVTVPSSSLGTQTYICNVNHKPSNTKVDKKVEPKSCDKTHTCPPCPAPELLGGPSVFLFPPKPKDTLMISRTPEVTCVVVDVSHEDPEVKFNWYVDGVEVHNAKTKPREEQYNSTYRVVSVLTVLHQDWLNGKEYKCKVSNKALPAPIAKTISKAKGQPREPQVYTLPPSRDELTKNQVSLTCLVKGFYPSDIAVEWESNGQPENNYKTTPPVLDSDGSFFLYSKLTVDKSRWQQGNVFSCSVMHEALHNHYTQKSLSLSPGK
light: EIVLTQSPATLSLSPGERATLSCRASQSIYTNLHWYQQKPGQSPRLLIKYASQSISGIPARFSGSGSGTDFTLTISSLEPEDFAVYYCQQSNSWPLTFGGGTKVEIKRTVAAPSVFIFPPSDEQLKSGTASVVCLLNNFYPREAKVQWKVDNALQSGNSQESVTEQDSKDSTYSLSSTLTLSKADYEKHKVYACEVTHQGLSSPVTKSFNRGEC
notes: Humanized, human IgG1-E333A / kappa; also called h009-07E

molecular target: T1, full-length human CD38 on CHO-S cells (CD38-FL-CHOS) (human, UniProt P28907 1-300); experiment: flow cytometry on CD38-FL-CHO-S cells
T1 construct: whole, on cells; also called natural CD38 present on the cell surface

EC50 [µg/mL]	Binder
0.481	B1
0.474	B2
0.402	B3

molecular target: T2, Fusion protein of CD38 extracellular domain with His tag: CD38-ECD-His (human, UniProt P28907 43-300); experiment: cell-based or functional assay

IC50 (µg/ml), inhibition of CD38 enzyme activity (cGDPR production from NGD) [µg/mL]	Imax (Maximum inhibition rate %) [%]	Binder
1.83	44.3	B1
1.2	47.7	B2
1.56	89.6	B3

molecular target: T2, Fusion protein of CD38 extracellular …; experiment: ELISA, biotin-labeled CD38-ECD-His on streptavidin-coated plate
Procedure: The affinity of the anti-CD38 antibodies were determined by the amount of the antibodies binding to CD38 immobilized on the ELISA plate. […] The plate was washed again and tetramethyl benzidine solution was added for color reaction. Finally, stop solution was added. OD450 was measured on a microplate reader and EC50 value was calculated.

EC50 [µg/mL]	Binder
0.0276	B1
0.028	B2
0.0259	B3

molecular target: T2, Fusion protein of CD38 extracellular …; experiment: SPR (Biacore), antibody captured as ligand, Human CD38-His as analyte
Procedure: Then the human CD38-ECD-His antigen passed through the surface of the chip, and a real-time detection for the reaction signal was performed with Biacore instrument. The resulting binding and dissociation curves were fitted to calculate the affinity values. After the dissociation of each cycle was completed in the experiment, the biochip was washed and regenerated with the regeneration solution supplied in the Human Fc Capture Kit (GE).

Kd [nM]	koff [s⁻¹]	kon [M⁻¹ s⁻¹]	Binder
0.568	0.00117	2.07e+06	B1
0.0585	0.000115	1.96e+06	B2
1.31	0.00138	1.05e+06	B3
